Measured values taken from the RNAGym collection of RNA variant scans (doi:10.7554/elife.80360).

B1: HDV Ribozyme (parent)
chain: GGCCGGCAUGGUCCCAGCCUCCUCGCUGGCGCCGGCUGGGCAACAUUCCGAGGGGACCGUCCCCUCGGUAAUGGCGAAUGGGACCCA

Variants of: B1
Test: self-cleavage, relative activity (ratio to wild type); higher = more cleavage; co-transcriptional

Variant | self-cleavage
GGCCGGCAUGGUCCCAGCCUCCUCGCUGGCGCCGGCUGGGCAACAUUUCGAGGGGACGGUCCCCUCGGUAAUGGCGAAUGGGACCCA [C48U C58G] | 1.06
GGCCGGCAUGGUCCCAGCCUCCUCGCUGGCGCCGGCUGGGCAACAUUUCGAGGGGCCCGUCCCCUCGGUAAUGGCGAAUGGGACCCA [C48U A56C] | 0.657
GGCCGGCAUGGUCCCAGCCUCCUCGCUGGCGCCGGCUGGGCAACAUUGCGAGGGCACCGUCCCCUCGGUAAUGGCGAAUGGGACCCA [C48G G55C] | 0.851
GGCCGGCAUGGUCCCAGCCUCCUCGCUGGCGCCGGCUGGGCAACAUUGCGAGGGUACCGUCCCCUCGGUAAUGGCGAAUGGGACCCA [C48G G55U] | 0.972
GGCCGGCAUGGUCCCAGCCUCCUCGCUGGCGCCGGCUGGGCAACAUUGCGAGGGGACCGUCCCCUCGGUAAUGGCGUAUGGGACCCA [C48G A77U] | 0.748
GGCCGGCAUGGUCCCAGCCUCCUCGCUGGCGCCGGCUGGGCAACAUUUCGAGGGGACCGUCCCCUCGUUAAUGGCGAAUGGGACCCA [C48U G68U] | 0.893
GGCCGGCAUGGUCCCAGCCUCCUCGCUGGCGCCGGCUGGGCAACAUUUCGAGGGGACCGUCCCCUCGCUAAUGGCGAAUGGGACCCA [C48U G68C] | 0.959
GGCCGGCAUGGUCCCAGCCUCCUCGCUGGCGCCGGCUGGGCAACAUUGCGAGGGGACCGUCCCCUCGGUAAUGGCGAAUGGGACUCA [C48G C85U] | 0.831
GGCCGGCAUGGUCCCAGCCUCCUCGCUGGCGCCGGCUGGGCAACAUUUCGAGGGGACCGUCCCCUCGGUAAUGGCGAAUGGGACACA [C48U C85A] | 1.03
GGCCGGCAUGGUCCCAGCCUCCUCGCUGGCGCCGGCUGGGCAACAUUUCGAGGGGAACGUCCCCUCGGUAAUGGCGAAUGGGACCCA [C48U C57A] | 0.972
GGCCGGCAUGGUCCCAGCCUCCUCGCUGGCGCCGGCUGGGCAACAUUUCGAGGGAACCGUCCCCUCGGUAAUGGCGAAUGGGACCCA [C48U G55A] | 0.75
GGCCGGCAUGGUCCCAGCCUCCUCGCUGGCGCCGGCUGGGCAACAUUGCGAGGGGAGCGUCCCCUCGGUAAUGGCGAAUGGGACCCA [C48G C57G] | 1.03
GGCCGGCAUGGUCCCAGCCUCCUCGCUGGCGCCGGCUGGGCAACAUUGCGAGGGGACCGUCCGCUCGGUAAUGGCGAAUGGGACCCA [C48G C63G] | 0.306
GGCCGGCAUGGUCCCAGCCUCCUCGCUGGCGCCGGCUGGGCAACAUUGCGAGGGGACCGUCCCCUCGGUAAUGGCGAAAGGGACCCA [C48G U79A] | 0.911
GGCCGGCAUGGUCCCAGCCUCCUCGCUGGCGCCGGCUGGGCAACAUUGCGAGGGGACCGUCCCCUCGGUAAUGGGGAAUGGGACCCA [C48G C75G] | 0.0639
GGCCGGCAUGGUCCCAGCCUCCUCGCUGGCGCCGGCUGGGCAACAUUGCGAGGGGACCGUGCCCUCGGUAAUGGCGAAUGGGACCCA [C48G C61G] | 1.06

Variant | self-cleavage
GGCCGGCAUGGUCCCAGCCUCCUCGCUGGCGCCGGCUGGGCAACAUUGCGAGGGGACCGUCCCCUCGGUAAUGGCGAAUGGGAACCA [C48G C84A] | 0.932
GGCCGGCAUGGUCCCAGCCUCCUCGCUGGCGCCGGCUGGGCAACAUUGCGAGAGGACCGUCCCCUCGGUAAUGGCGAAUGGGACCCA [C48G G53A] | 1.06
GGCCGGCAUGGUCCCAGCCUCCUCGCUGGCGCCGGCUGGGCAACAUUUCGAGGGGACCGUCCCCUCAGUAAUGGCGAAUGGGACCCA [C48U G67A] | 0.818
GGCCGGCAUGGUCCCAGCCUCCUCGCUGGCGCCGGCUGGGCAACAUUGCGAGGGGACCGUCCCCUCGGUAAUGGCGAAUCGGACCCA [C48G G80C] | 0.262
GGCCGGCAUGGUCCCAGCCUCCUCGCUGGCGCCGGCUGGGCAACAUUGCGAGGGGACCGUCCCCUCGCUAAUGGCGAAUGGGACCCA [C48G G68C] | 1.14
GGCCGGCAUGGUCCCAGCCUCCUCGCUGGCGCCGGCUGGGCAACAUUUCGAGCGGACCGUCCCCUCGGUAAUGGCGAAUGGGACCCA [C48U G53C] | 0.997
GGCCGGCAUGGUCCCAGCCUCCUCGCUGGCGCCGGCUGGGCAACAUUGCGAGGGGACUGUCCCCUCGGUAAUGGCGAAUGGGACCCA [C48G C58U] | 0.617
GGCCGGCAUGGUCCCAGCCUCCUCGCUGGCGCCGGCUGGGCAACAUUGCGAGGGGACGGUCCCCUCGGUAAUGGCGAAUGGGACCCA [C48G C58G] | 1.11
GGCCGGCAUGGUCCCAGCCUCCUCGCUGGCGCCGGCUGGGCAACAUUGCGAGGGGACCCUCCCCUCGGUAAUGGCGAAUGGGACCCA [C48G G59C] | 0.831
GGCCGGCAUGGUCCCAGCCUCCUCGCUGGCGCCGGCUGGGCAACAUUGCGAGGGGACCGUCCCCUCGGUAACGGCGAAUGGGACCCA [C48G U72C] | 0.449
GGCCGGCAUGGUCCCAGCCUCCUCGCUGGCGCCGGCUGGGCAACAUUUCGAGGGGACCGUCCCCUCGGUAGUGGCGAAUGGGACCCA [C48U A71G] | 1.03
GGCCGGCAUGGUCCCAGCCUCCUCGCUGGCGCCGGCUGGGCAACAUUUCGAGGGGACCGUCCCCUCGGUAAUGGCGAAUGGGACCUA [C48U C86U] | 1.09
GGCCGGCAUGGUCCCAGCCUCCUCGCUGGCGCCGGCUGGGCAACAUUUCGAGGGGACCGUCCCCUCGGUAAUGGCGAAUGGGACCAA [C48U C86A] | 0.985
GGCCGGCAUGGUCCCAGCCUCCUCGCUGGCGCCGGCUGGGCAACAUUUCGAGGGGACCGUCCCCUCGGUAAUGGCGAAUGGGACCGA [C48U C86G] | 1.14
GGCCGGCAUGGUCCCAGCCUCCUCGCUGGCGCCGGCUGGGCAACAUUACGAGGGGACCGUCCCCUCGGUAAUGGCGAAGGGGACCCA [C48A U79G] | 0.982
GGCCGGCAUGGUCCCAGCCUCCUCGCUGGCGCCGGCUGGGCAACAUUACGAGGGGACCGUCCCCUCGGUAAUGGCGAACGGGACCCA [C48A U79C] | 0.514
